Measured values reported in patent US20150330991A1 (GWANGJU INSTITUTE OF SCIENCE AND TECHNOLOGY, published 2015).

Columns and labels:
streptavidin [1] = molecular target: T1, streptavidin (UniProt P22629 37-163, limits assumed); assay: SPR (BIAcore X), ratio of KD values
T1 construct: Immobilised on a CM5 chip (2000 RU) for SPR; coated on plates for ELISA; also called streptavidin protein
Method: (§1) A streptavidin-binding peptide optimized peptide and an existing peptide were synthesized (Anygen). The affinity measurement was conducted using BIAcore X (Biacore AB, Uppsala, Sweden). Here, 2000 RU of streptavidin was allowed to flow on the CM5 chip (Biacore) for immobilization. PBS (pH 7.4) was used as a running buffer, and the kinetics at different concentrations was measured under a flow rate of 30 μl per minute. The affinity was calculated using BlAevaluation software (Biacore AB, Uppsala, Sweden).
(§2) Optimized peptide Strep_opti1 and control peptide […] were synthesized, and affinities thereof were measured using the SPR Biacore system.

streptavidin [2] = molecular target: T1, streptavidin; assay: SPR (BIAcore X), streptavidin immobilised on CM5 chip, synthetic peptide as analyte
Method: as §1, §2

BSA = molecular target: T2, BSA (bovine, UniProt P02769); assay: phage ELISA, wells coated with 5 µg/ml protein, anti-M13-HRP, absorbance at 450 nm
T2 construct: not further described; off-target control protein of the specificity ELISA
T2 sequence (P02769 25-607 limits assumed): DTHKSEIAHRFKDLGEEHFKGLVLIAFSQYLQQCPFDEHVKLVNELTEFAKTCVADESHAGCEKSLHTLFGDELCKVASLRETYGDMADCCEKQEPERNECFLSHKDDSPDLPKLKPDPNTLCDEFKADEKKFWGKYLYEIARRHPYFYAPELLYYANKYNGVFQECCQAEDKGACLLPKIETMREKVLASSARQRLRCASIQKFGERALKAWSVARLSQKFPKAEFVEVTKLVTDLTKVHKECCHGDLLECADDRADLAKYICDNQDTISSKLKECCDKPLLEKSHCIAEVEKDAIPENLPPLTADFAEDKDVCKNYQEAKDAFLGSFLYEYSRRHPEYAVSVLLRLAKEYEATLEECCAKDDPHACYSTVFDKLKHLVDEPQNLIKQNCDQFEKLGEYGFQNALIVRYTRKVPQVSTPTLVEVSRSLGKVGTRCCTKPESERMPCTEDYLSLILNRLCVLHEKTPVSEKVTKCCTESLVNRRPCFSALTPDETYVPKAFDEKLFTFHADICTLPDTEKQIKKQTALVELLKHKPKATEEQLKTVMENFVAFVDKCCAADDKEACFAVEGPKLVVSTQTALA
Method: In order to investigate specificities to streptavidin, of peptides (Strep_opti1 and Strep_opti2) obtained through sequencing, recombinant phages expressing these peptides were used to investigate specificities to streptavidin, BSA, ovalbumin, and VEGF. First, 5 μg/ml streptavidin, BSA, ovalbumin, and VEGF were put in a 96-well ELISA plate (50 μl per well), and then allowed to stand at 4° C. overnight. Next day, all the wells were washed three times with 0.1% PBST, and blocked at room temperature for 2 hrs using 2% BSA diluted with PBS. Then, the solution was discarded, followed by washing with 0.1% PBST three times. 800 μl of recombinant phages of each of Strep_opti1 and Strep_opti2 and 200 μl of 10% BSA were added thereto, and each 100 μl was dispensed into streptavidin, BSA, ovalbumin, and VEGF wells, followed by standing at 27° C. for 1 hr. After washing five times with 0.1% PBST solution, the HRP-conjugated anti-M13 antibody (GE Healthcare) was diluted to 1:1,000, and then the reaction was performed at 27° C. for 1 hr. After washing five times with 0.1% PBST, 100 μl of the TMB solution was dispensed into each well to induce a colorimetric reaction, and then the reaction was stopped by adding 100 μl of 1 M HCl. The absorbance was measured at 450 nm.

[3] = molecular target: T3, fibronectin extra domain B (ED-B) (UniProt P02751 1266-1356, biotinylated (biotin ED-B), site not stated); assay: SPR (Biacore X), biotin-EDB on a streptavidin SA chip
T3 construct: domain: ED-B; Biotin-EDB captured on a streptavidin SA chip (2,000 RU) for SPR and on streptavidin-coated wells for ELISA; also called biotin ED-B; biotin-EDB
T3 sequence (P02751 1266-1356 limits assumed): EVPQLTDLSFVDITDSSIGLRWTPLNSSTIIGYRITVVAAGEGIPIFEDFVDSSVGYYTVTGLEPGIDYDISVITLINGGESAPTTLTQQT
Method: (§3) The bipodal peptide binder found from BPB2EDB, BPB3EDB, and BPB4EDB maturation libraries were synthesized (Anygen, Korea). The affinity measurement was conducted using BIAcore X (Biacore AB, Uppsala, Sweden). 2,000 RU of biotin-EDB was allowed to flow on the streptavidin SA chip (Biacore) for immobilization. PBS (pH 7.4) was used as a running buffer, and kinetics at different concentrations was measured under a flow rate of 30 μl per minute. The affinity was calculated using BlAevaluation software (Biacore AB, Uppsala, Sweden).

[4] = molecular target: T3, fibronectin extra domain B (ED-B); assay: SPR (BIAcore X), biotin-EDB on streptavidin SA chip, synthetic peptide as analyte; peptide 2
Method: as §3

[5] = molecular target: T4, vascular endothelial growth factor receptor 1 (VEGFR1) (UniProt P17948 27-756, limits assumed); assay: SPR (BIAcore X), from RU at 5 µM against the control's RU at 200 µM
T4 construct: Immobilised on a CM5 chip (7000 RU) for SPR; coated on plates for ELISA; also called VEGFR1 protein
T4 sequence (P17948 27-756 limits assumed): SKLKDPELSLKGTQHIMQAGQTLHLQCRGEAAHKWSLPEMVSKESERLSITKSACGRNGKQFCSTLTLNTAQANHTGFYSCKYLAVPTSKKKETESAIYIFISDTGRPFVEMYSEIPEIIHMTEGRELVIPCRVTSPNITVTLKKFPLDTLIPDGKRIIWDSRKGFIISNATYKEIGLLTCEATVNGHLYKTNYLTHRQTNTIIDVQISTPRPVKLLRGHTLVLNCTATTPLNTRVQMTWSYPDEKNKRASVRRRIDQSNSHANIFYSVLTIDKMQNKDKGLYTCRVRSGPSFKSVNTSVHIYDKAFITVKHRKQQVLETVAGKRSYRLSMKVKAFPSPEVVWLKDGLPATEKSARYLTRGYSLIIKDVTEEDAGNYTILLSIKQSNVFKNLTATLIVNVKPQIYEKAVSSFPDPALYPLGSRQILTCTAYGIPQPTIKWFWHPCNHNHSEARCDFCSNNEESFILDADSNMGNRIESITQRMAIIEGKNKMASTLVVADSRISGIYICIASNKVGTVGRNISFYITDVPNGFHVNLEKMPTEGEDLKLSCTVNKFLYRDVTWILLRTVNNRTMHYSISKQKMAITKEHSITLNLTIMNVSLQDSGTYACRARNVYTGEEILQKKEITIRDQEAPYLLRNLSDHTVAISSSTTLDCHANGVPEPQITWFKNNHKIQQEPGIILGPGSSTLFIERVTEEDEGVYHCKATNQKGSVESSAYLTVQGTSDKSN
Method: as §1, with “VEGFR1-binding” for “streptavidin-binding”, “7000” for “2000”, “VEGFR1” for “streptavidin”
Optimized peptide VEGFR1_opti1 and control peptide GNQWFI were synthesized, and affinities thereof were measured using the SPR Biacore system.

streptavidin [6] = molecular target: T1, streptavidin; assay: phage ELISA, wells coated with 5 µg/ml protein, anti-M13-HRP, absorbance at 450 nm
Method: In order to investigate specificities to streptavidin, of peptides (VEGFR1_opti1, VEGFR1_opti2, and VEGFR1_opti3) obtained through sequencing, recombinant phages expressing these peptides were used to investigate specificities to VEGFR1, VEGFR2, streptavidin, HSA, TNF, and VEGF. First, 5 μg/ml VEGFR1, VEGFR2, streptavidin, HSA, TNF, and VEGF were put in a 96-well ELISA plate (50 μl per well), and then allowed to stand at 4° C. overnight. The next day, all the wells were washed three times with 0.1% PBST, and blocked at room temperature for 2 hrs using 2% BSA diluted with PBS. Then, the whole solution was discarded, followed by washing three times with 0.1% PBST. 800 μl of recombinant phages of each of VEGFR1_opti1, VEGFR1_opti2, and VEGFR1_opti3 and 200 μl of 10% BSA were added thereto, and each 100 μl was dispensed into VEGFR1, VEGFR2, streptavidin, HSA, TNF, and VEGF wells, followed by standing at 27° C. for 1 hr. After washing five times with 0.1% PBST solution, the HRP-conjugated anti-M13 antibody (GE Healthcare) was diluted to 1:1,000, and then the reaction was performed at 27° C. for 1 hr. After washing with 0.1% PBST five times, 100 μl of the TMB solution was dispensed into each well to induce a colorimetric reaction, and then the reaction was stopped by adding 100 μl of 1 M HCl. The absorbance was measured at 450 nm.

[7] = molecular target: T3, fibronectin extra domain B (ED-B); assay: SPR (BIAcore X), biotin-EDB on streptavidin SA chip
[8] = molecular target: T3, fibronectin extra domain B (ED-B); assay: SPR (BIAcore X), biotin-EDB on streptavidin SA chip, synthetic peptide as analyte; peptide 1
Method: as §3

T1 sequence (P22629 37-163 limits assumed): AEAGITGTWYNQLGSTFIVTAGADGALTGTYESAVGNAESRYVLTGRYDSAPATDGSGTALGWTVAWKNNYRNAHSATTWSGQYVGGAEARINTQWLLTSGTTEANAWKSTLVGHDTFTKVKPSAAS

WSHPQFEKGGGSWTWENGKWTWKGAHPQVR (Synthetic peptide in SPR) [Strep_opti1]
fold increase in affinity compared with control peptide WSHPQFEK (streptavidin [1]): 1220 fold
Kd (streptavidin [2]): 0.067 µM
binding result (BSA): no binding

B1: peptide 2 (ADGRVRGSWTWENGKWTWKGIIRLEQ) (peptide)
peptide: ADGRVRGSWTWENGKWTWKGIIRLEQ
notes: Synthetic in SPR; on phage in the colony ELISA; also called BPB2 peptide 2
koff [3]: 0.01 s⁻¹
kon [3]: 370000 M⁻¹ s⁻¹
Kd [4]: 0.035 µM

B2: VEGFR1_opti1 (peptide)
peptide: GNQWFIGGGSWTWENGKWTWKGRIPKNR
notes: Synthetic peptide in SPR; also called optimized peptide VEGFR1_opti1; KPI-BPB VEGFR1_opti1
fold increase in affinity compared with the control peptide [5]: ~360 fold
binding result (streptavidin [6]): no binding

CSSPIQGSWTWENGKWTWKGIIRLEQ (also called BPB2EDB; BPB2) [peptide 3 (CSSPIQGSWTWENGKWTWKGIIRLEQ)]
Kd [7]: 0.016 µM
koff [7]: 0.00051 s⁻¹
kon [7]: 30000 M⁻¹ s⁻¹

B3: streptavidin-binding peptide WSHPQFEK (peptide)
peptide: WSHPQFEK
notes: Synthetic control peptide in SPR; also called known peptide
Kd (streptavidin [2]): 82 µM

B4: peptide 1 (WGGPVRGSWTWENGKWTWKGIIRLEQ) (peptide)
peptide: WGGPVRGSWTWENGKWTWKGIIRLEQ
notes: Synthetic in SPR; on phage in the colony ELISA; also called BPB2 peptide 1
koff [3]: 0.02 s⁻¹
kon [3]: 250000 M⁻¹ s⁻¹
Kd [8]: 0.115 µM

WSHPQFEKGGGSWTWENGKWTWKGTLIHPM [Strep_opti2]
binding result (BSA): no binding

GNQWFIGGGSWTWENGKWTWKGQQAIQP (also called KPI-BPB VEGFR1_opti3) [VEGFR1_opti3]
binding result (streptavidin [6]): no binding

GNQWFIGGGSWTWENGKWTWKGKLQNPM (also called KPI-BPB VEGFR1_opti2) [VEGFR1_opti2]
binding result (streptavidin [6]): no binding
